Results: US20150132305A1

T1: Cad-11 37-mer peptide linked to BSA (encompasses the Cad-11 immunogen) (human)
T1 sequence (peptide, linked to BSA): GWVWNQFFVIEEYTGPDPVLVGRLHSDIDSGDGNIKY

T2: human Cadherin-11 on cells (Cad-11-expressing 431-D-11 cells; human fibroblast-like synoviocytes) (human) (UniProt P55287)
T2 sequence: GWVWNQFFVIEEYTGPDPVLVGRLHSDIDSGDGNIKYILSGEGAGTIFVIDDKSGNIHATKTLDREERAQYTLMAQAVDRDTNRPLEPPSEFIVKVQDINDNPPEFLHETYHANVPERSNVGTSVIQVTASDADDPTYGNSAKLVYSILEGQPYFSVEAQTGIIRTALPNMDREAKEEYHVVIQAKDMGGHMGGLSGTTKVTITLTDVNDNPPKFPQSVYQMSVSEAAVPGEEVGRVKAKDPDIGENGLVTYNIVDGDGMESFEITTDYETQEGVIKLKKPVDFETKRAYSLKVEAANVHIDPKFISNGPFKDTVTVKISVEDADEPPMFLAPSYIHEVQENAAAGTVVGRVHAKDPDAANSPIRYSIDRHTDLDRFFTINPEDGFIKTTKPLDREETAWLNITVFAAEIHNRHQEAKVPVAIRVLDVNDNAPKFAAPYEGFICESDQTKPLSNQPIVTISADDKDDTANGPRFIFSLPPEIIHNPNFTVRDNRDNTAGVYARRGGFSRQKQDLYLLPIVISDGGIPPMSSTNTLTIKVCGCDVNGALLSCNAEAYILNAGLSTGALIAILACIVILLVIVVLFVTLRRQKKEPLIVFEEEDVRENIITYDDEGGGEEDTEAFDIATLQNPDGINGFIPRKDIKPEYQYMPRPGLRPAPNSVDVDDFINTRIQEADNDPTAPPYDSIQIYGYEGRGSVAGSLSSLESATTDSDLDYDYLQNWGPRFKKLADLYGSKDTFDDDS

T3: Cad-8 EC1 domain peptide (region overlapping G1-G33 of the Cad-11 EC1 domain) (UniProt P55286)
T3 sequence (peptide, conjugated to biotin, looked up): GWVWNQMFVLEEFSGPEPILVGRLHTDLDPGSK

T4: recombinant Cad-11 EC1 human IgG1 fusion protein (R&D Systems Cat. No. 1790-CA-050) (human) (UniProt P55287)
T4 sequence: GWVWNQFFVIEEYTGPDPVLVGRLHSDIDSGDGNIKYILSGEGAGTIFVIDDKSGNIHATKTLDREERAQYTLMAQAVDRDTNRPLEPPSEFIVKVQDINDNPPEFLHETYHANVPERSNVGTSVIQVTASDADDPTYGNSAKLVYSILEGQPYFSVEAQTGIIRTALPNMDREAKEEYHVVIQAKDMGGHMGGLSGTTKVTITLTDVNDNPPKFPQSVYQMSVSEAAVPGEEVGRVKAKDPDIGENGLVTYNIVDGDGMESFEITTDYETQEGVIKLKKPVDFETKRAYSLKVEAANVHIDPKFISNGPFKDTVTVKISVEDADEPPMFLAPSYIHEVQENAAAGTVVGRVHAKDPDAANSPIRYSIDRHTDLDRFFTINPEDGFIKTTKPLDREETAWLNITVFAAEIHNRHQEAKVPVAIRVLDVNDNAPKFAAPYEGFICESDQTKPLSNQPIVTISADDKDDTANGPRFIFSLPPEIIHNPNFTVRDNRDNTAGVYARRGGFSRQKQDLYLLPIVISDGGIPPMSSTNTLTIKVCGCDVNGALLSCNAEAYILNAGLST


Tests used:
[1] = target: T1, Cad-11 37-mer peptide linked to BSA (encompasses the Cad-11 immunogen) (human); assay: ELISA on BSA-coupled 37-mer peptides, 500 ng/ml coat
[2] = target: T1, Cad-11 37-mer peptide linked to BSA (encompasses the Cad-11 immunogen) (human); assay: ELISA on peptide antigens, 50 ng/ml coat
[3] = target: T1, Cad-11 37-mer peptide linked to BSA (encompasses the Cad-11 immunogen) (human); assay: ELISA on peptide antigen, 50 ng/ml coat; Cad-11 antigen, 50 ng/ml coat
[4] = target: T1, Cad-11 37-mer peptide linked to BSA (encompasses the Cad-11 immunogen) (human); assay: ELISA, BSA-coupled 37-mer cadherin peptide coated at 500 ng/ml, A450
[5] = target: T2, human Cadherin-11 on cells (Cad-11-expressing 431-D-11 cells; human fibroblast-like synoviocytes) (human); assay: cell-based or functional assay
[6] = target: Cad-11 EC1 domain peptide, first 33 amino acids (G1-G33), specificity ELISA of Example 5 (human); assay: ELISA on biotin EC1 peptides
[7] = target: T3, Cad-8 EC1 domain peptide (region overlapping G1-G33 of the Cad-11 EC1 domain); assay: ELISA on biotin EC1 peptides
[8] = target: T4, recombinant Cad-11 EC1 human IgG1 fusion protein (R&D Systems Cat. No. 1790-CA-050) (human); assay: competition ELISA on coated recombinant human Cad-11 EC1 fusion protein against biotinylated SYN0012 (0.1 µg/ml)

| fold greater binding to the Cad-11 antigen than to the related antigens from the other cadherins [1] [fold] | binding differential, Cad-11 against Cad-8 [2] [fold] | EC50 [3] [ng/mL] | EC50 (read off the curve) [4] [ng/mL] | inhibition of FLS invasion into MATRIGEL-coated membrane [5] [%] | fold higher binding to Cad-11 than to any of the other cadherins tested [6] [fold] | fold lower binding than to Cad-11 [7] [fold] | IC50 (read off the curve) [8] [µg/mL] | Binder |
| --- | --- | --- | --- | --- | --- | --- | --- | --- |
| > 100 | > 200 | 6.8 | 40 |  |  |  |  | SDP051 humanized anti-Cad-11 EC1 antibody (Vκ1/VH5) (antibody, IgG4, V domains shown) VH: EVQLVQSGAEVKKPGASVKVSCKASGYSFTGYFMNWVRQAPGQGLEWIGRINPYTGDTFYNQKFKGRVTITVDKSTSTAYMELSSLRSEDTAVYYCGRLGSRYWYFDVWGQGTTVTVSS VL: DVLMTQTPLSSPVTLGQPASISCRSSQSIIHSNGNTYLEWYLQKPGQSPQLLIYKVSNRFSGVPDRFTGSGSGTDFTLKISRVEAEDVGVYYCFQGSHVPWTFGQGTKLEIK |
|  |  |  |  | 80 | > 100 | 1500 | 0.2 | H1M1 anti-Cad-11 EC1 domain antibody (hybridoma H1M1, ATCC PTA-9699) (antibody, V domains shown) VH: EVQLQQSGPELVKPGASVKISCKASGYSFTGYFMNWVKQSHGKSLEWIGRINPYTGDTFYNQKFKGKATLTVDKSSSTAHMELLSLSSEDSAVYYCGRLGSRYWYFDVWGAGTTVTVSS VL: DVLMTQTPLSLPVSLGDQASISCRSSQSIIHSNGNTYLEWYLQKPGQSPKLLIYKVSNRFSGVPDRFWTFGGGTKLEIKTGSGSGTDFTLKISRVEAEDLGVYYCFQGSHVPWTFGGGTKLEIK |
